system: TO-3-N3-2 (biotin conjugate); assay: pull-down binding Z-score (relative to library population); higher = stronger binding; details: RNA library: Library-2
Method in brief: (§1)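 Binding is given as a Z-score against the library mean and standard deviation, calculated after removing the beads-only signal and averaging barcoded replicate probes without their highest and lowest values. Cy5- or Cy3-end-labelled RNA library (1 μg) was heat-folded in phosphate/NaCl/KCl buffer and incubated 60 min at 25 °C with streptavidin beads bearing 100 pmol of biotin-conjugated small molecule. After three washes, RNA eluted in hot SDS was hybridised to a DNA barcode microarray for 20 h at 55.5 °C.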

In order of rising “pull-down binding Z-score” value:
1. CUUCGGUAUUCAUCAAAAAUACCAAAG [hsa-mir-4735]  -0.63
2. CUGUGGUGGCUGCUCAUGCACCACGG [hsa-mir-105-1]  -0.574
3. CUGUGAAUCCAAGAUCCACA [hsa-mir-4527]  -0.489
4. CUUUGUGAUUUUAUGAGAACAAAG [hsa-mir-3173]  -0.486
5. CUGUGCAGAACAUCCGCUCACCUGUACAG [hsa-mir-214]  -0.43
6. CUGUGACGUGCUCCAUCACCGGGCAG [hsa-mir-3714]  -0.391
7. CUUUCUGUUGUCUGAGAGAAAAGAAAG [hsa-mir-520a]  -0.385
8. CUUUUGUUCAAAUAAAAAUGCAAAAG [hsa-mir-651]  -0.367
9. CUUUCUGUGACUUUAAAAGUAAG [hsa-mir-302b]  -0.355
10. CUGUGGUUUGCUGGCUGCCUCAG [hsa-mir-6736]  -0.353
11. CUGUGCUGUCUCUGAGCACCG [hsa-mir-6827]  -0.348
12. CUGUUGUUUCAGCUCGACAACAACAG [hsa-mir-3937]  -0.335
13. CUUAAUAGAUUAAUAUUUGUAAG [hsa-mir-506]  -0.335
14. CUUUGGUGGCUAUGGUUGACUGGGCCACUCAGAG [hsa-mir-4468]  -0.332
15. CUUUCUGUUGUCUAAAAGAAAAGAAAG [hsa-mir-520d]  -0.331
16. CUUUCCUUUUUGUCUGUACUGGGAAG [hsa-mir-373]  -0.328
17. CUUCUGCUUCCUCUUAGCGCAGGAG [hsa-mir-1914]  -0.325
18. CUUUCUGUUGUCUGAAAGAAAGGAAAG [hsa-mir-519a-1_519a-2]  -0.315
19. CUUUUAUGUGCCUUGAUAUAAAAG [hsa-mir-3910-2]  -0.297
20. CUUUCCUCAGCUGAUUUCUUUCUGGGGAGAG [hsa-mir-5186]  -0.279
21. CUUUUAUAUCAAGGCACAUAAAAG [hsa-mir-3910-1]  -0.271
22. CUGUUCAGGACAAUGCCGUUGUACA [hsa-mir-199a-2]  -0.27
23. CUUCUUACUGCACCAGUGAAG [hsa-mir-5683]  -0.268
24. GAAAACUUUGGAGAAAAAUUUUC [hsa-mir-4659a]  -0.258
25. CUUCAGAGCAGGGUUUGGUCUGUGCUUCUCUG [hsa-mir-6719]  -0.245
26. CUUAGAUUUUUCCAUCUUUGUAUCUAG [hsa-mir-29b-2]  -0.236
27. CUUUAGCUAUUCUGAAUGCCUAAAG [hsa-mir-4662a]  -0.236
28. CUGUGAUAACAACUCAG [hsa-mir-4705]  -0.23
29. CUUUAGGCAUUCAGAAUAGCUAAAG [hsa-mir-4662b]  -0.212
30. CUUCACUGGUGCAGUAAGAAG [hsa-mir-7853]  -0.195
31. CUUAAGUGGUUCGGGUAAAUCACUUUAA [hsa-mir-3977]  -0.186
32. CUGUUUCUGGUGAAAUAUUCAAACAG [hsa-mir-4433a]  -0.178
33. CUUCAGCCCCAGGAAGCCUUGGUCGGGGGCAGGAG [hsa-mir-647]  -0.171
34. CUUGUGGUAUUAGUCCGCACAAG [hsa-mir-100]  -0.161
35. CUUGAUUUAAUGUCAUACAAUUAAG [hsa-mir-124-2]  -0.157
36. CUUGCGGGGCCUUCGCCGCACACAAG [hsa-mir-99b]  -0.148
37. CUUGAUUUAAAUGUCCAUACAAUUAAG [hsa-mir-124-1]  -0.142
38. CUUGCUUUGAAACUAAAGAAGUAAG [hsa-mir-302a]  -0.131
39. CUGUUUGUUGUCUGAGAAAAAACA [hsa-mir-520g_520h]  -0.125
40. CUUGGCACCUUUGGCCUUAG [hsa-mir-4540]  -0.125
41. CUGUGGUGGCUGCUUAUGCACCACGG [hsa-mir-105-2]  -0.102
42. CUUUGCUACUGCUC [hsa-mir-6072]  -0.0975
43. CUUGGCUUCAAUUUACUCCCAGG [hsa-mir-4446]  -0.0843
44. CUUUUAGAGUAAUUGUGAAACUGUUUUUCAAAG [hsa-mir-562]  -0.0695
45. CUGUGGCCGGUCCCAG [hsa-mir-4656]  -0.0683
46. CUUGAUUUAAUGUCUAUACAAUUAAG [hsa-mir-124-3]  -0.0577
47. CUUGUGGUGAAGUGGACCGCACAAG [hsa-mir-99a]  0.00618
48. CUUCGCGCUAGUUUGUUUGUGUUAAG [hsa-mir-6077]  0.0164
49. CUGUUGUGCCUAAUUCAGAG [hsa-mir-296]  0.0218
50. CUUUGUCUGACUACAAUAUUCAAAAG [hsa-mir-4426]  0.0275
51. CUUACUGCCCGGGCCGCCCUCAGUAA [hsa-mir-212]  0.033
52. CUUUCUGUUGUCUAAAAGAAAAGAACG [hsa-mir-521-1]  0.0499
53. CUUGCAGAAUUAAUGGAAUGCUG [hsa-mir-676]  0.0539
54. CUUUCUGUUGUCUGAAAGAAAAGAAAG [hsa-mir-520c_520b_519c_519b]  0.102
55. CUUACUGUACACGUGGCUGGCAAG [hsa-mir-4428]  0.108
56. CUUUCUGUUGUCUGAAAGAAAAGAAAA [hsa-mir-522]  0.118
57. CUGUGGUCUAACCUUUCCCAUCU [hsa-mir-6828]  0.125
58. CUUUCUGUUGGCUAAAAGAAAAGAAAG [hsa-mir-518e]  0.129
59. CUUUUUGCUGAUGGAGGGUCUUGCCUCCAUGGGGAUGGCUG [hsa-mir-4502]  0.159
60. CUUUUGGAAAAUAGAAAAG [hsa-mir-3184]  0.161
61. CUGUGAGGACAUCCAGGGUCACAG [hsa-mir-125a]  0.169
62. GAAAAAUCCCUGUUAACUUUC [hsa-mir-6833]  0.174
63. CUUGGGCCCAUUCCUUUCCUUACCCUAC [hsa-mir-6798]  0.218
64. CUUUGUCAUUAAAACCAAUAACAAAA [hsa-mir-548ap]  0.223
65. CUGUGCAGGGCCAACUGUGCACAC [hsa-mir-3681]  0.227
66. CUUCCUGAGCACGCUCAUGAUGAGCAAACUGAGCCUCUAAG [hsa-mir-3653]  0.277
67. CUUUUUGCCACCUGAGCACAGUCAGCAGUCAGCAUAAAA [hsa-mir-4275]  0.292
68. CUGUCUGUUGUCUAAGAAAAGAUCG [hsa-mir-517c_517b]  0.294
69. CUUGCUGUGACAUGACAAAAAUAAG [hsa-mir-302d]  0.294
70. CUUAGUAGGUGAUAGCAUGACUGAC [hsa-mir-5002]  0.356
71. CUGUUCAGGACUCCCAAAUUGUACAG [hsa-mir-199b]  0.385
72. CUGUUCAGGAGGCUCUCAAUGUGUACA [hsa-mir-199a-1]  0.404
73. CUUCCCAUUUAAAAGUAAUGGCACA [hsa-mir-603]  0.425
74. CUGUGUGAGGACUAGAGGCGG [hsa-mir-4523]  0.44
75. CUGUUGAAAGAAAAG [hsa-mir-526a-2]  0.511

system: TO-3-N3 (biotin conjugate); assay: as above; details: RNA library: Library-2
Method in brief: as §1

In order of rising “pull-down binding Z-score” value:
1. CUGUGGUGGCUGCUCAUGCACCACGG [hsa-mir-105-1]  -0.868
2. CUGUCUGUUGUCUAAGAAAAGAUCG [hsa-mir-517c_517b]  -0.481
3. CUGUGAAUCCAAGAUCCACA [hsa-mir-4527]  -0.439
4. CUGUGACGUGCUCCAUCACCGGGCAG [hsa-mir-3714]  -0.37
5. CUGUUCAGGACAAUGCCGUUGUACA [hsa-mir-199a-2]  -0.355
6. CUGUGGUCUAACCUUUCCCAUCU [hsa-mir-6828]  -0.163
7. CUGUGCAGAACAUCCGCUCACCUGUACAG [hsa-mir-214]  0.0427
8. CUGUGCUGUCUCUGAGCACCG [hsa-mir-6827]  0.0475
9. CUGUGUGAGGACUAGAGGCGG [hsa-mir-4523]  0.0476
10. CUGUGGUUUGCUGGCUGCCUCAG [hsa-mir-6736]  0.2
11. CUGUGAGGACAUCCAGGGUCACAG [hsa-mir-125a]  0.423
12. CUGUUGAAAGAAAAG [hsa-mir-526a-2]  0.496
13. CUGUUCAGGAGGCUCUCAAUGUGUACA [hsa-mir-199a-1]  0.518
14. CUGUGAUAACAACUCAG [hsa-mir-4705]  0.564
15. CUGUGGUGGCUGCUUAUGCACCACGG [hsa-mir-105-2]  0.62
16. CUGUGCAGGGCCAACUGUGCACAC [hsa-mir-3681]  0.827
17. CUGUUCAGGACUCCCAAAUUGUACAG [hsa-mir-199b]  1.12
18. CUGUGGCCGGUCCCAG [hsa-mir-4656]  1.39

Source: the supplement of paper PMC11865577
